{"source": "patent US20240400627A1", "about": "(YALE UNIVERSITY, published 2024)", "binders": {"B1": {"name": "2HA-PC1-CTT (final 200 amino acids of human polycystin-1, aa 4102-4302, with an N-terminal 2xHA epitope tag) (other, not shown: small tags and cut ends)", "chain": "VILRWRYHALRGELYRPAWEPQDYEMVELFLRRLRLWMGLSKVKEFRHKVRFEGMEPLPSRSSRGSKVSPDVPPPSAGSDASHPSTSSSQLDGLSVSLGRLGTRCEPEPSRLQAVFEALLTQFDRLNQATEDVYQLEQQLHSLQGRRSSRAPAGSSRGPSPGLRPALPSRLARASRGVDLATGPSRTPLRAKNKVHPSST", "notes": "Expressed from a BAC transgene in renal epithelial cells of Pkd1-KO+CTT mice; detected as a 37-kDa HA-tagged band; also called 2HA-PKD1-CTT; polycystin-1 C-terminal tail"}}, "target": "T1, Nicotinamide Nucleotide Transhydrogenase (NNT), endogenous, mouse kidney (mouse, UniProt Q61941 44-1086)", "T1 construct": "Inner mitochondrial membrane protein; absent in C57BL/6J mice (deletion of exons 7-11 of Nnt)", "T1 sequence (looked up)": "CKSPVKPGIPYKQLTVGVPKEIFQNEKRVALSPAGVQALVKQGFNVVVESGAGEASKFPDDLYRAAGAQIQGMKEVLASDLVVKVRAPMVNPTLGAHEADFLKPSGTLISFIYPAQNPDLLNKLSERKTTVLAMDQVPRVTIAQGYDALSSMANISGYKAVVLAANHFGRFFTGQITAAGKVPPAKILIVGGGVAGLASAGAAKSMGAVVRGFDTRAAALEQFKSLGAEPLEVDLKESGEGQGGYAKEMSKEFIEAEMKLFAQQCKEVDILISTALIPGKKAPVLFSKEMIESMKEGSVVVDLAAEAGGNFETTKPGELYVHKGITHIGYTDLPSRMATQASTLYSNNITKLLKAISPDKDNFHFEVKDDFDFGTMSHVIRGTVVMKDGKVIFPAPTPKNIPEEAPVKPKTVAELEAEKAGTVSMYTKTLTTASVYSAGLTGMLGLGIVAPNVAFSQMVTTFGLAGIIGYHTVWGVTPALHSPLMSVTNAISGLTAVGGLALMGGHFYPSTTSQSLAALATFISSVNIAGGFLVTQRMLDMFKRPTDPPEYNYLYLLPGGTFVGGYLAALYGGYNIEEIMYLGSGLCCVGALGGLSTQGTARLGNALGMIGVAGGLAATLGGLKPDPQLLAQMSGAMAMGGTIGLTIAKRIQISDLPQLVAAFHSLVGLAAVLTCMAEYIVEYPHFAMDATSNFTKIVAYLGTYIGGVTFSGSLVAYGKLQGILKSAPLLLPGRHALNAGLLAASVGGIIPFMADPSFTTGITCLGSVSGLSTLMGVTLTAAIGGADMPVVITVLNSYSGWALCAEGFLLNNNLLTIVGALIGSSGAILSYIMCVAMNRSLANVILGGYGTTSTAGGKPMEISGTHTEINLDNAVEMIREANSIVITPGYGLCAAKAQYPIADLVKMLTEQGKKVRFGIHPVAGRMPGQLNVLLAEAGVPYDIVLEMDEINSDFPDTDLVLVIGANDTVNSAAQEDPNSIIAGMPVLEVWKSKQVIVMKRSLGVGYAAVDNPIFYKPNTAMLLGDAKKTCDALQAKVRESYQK", "experiment": "anti-HA immunoprecipitation from mouse kidney lysates, immunoblot", "procedure": "Homogenates were then sonicated for 30 seconds (2×15 second bursts at 40% power) and incubated for 45 minutes on ice to complete protein solubilization. Lysates were centrifuged at 8000 rpm for 15 minutes. Protein concentrations were measured with the Protein Assay Dye Reagent Concentrate (catalog #5000006, Bio-Rad). Anti-HA magnetic beads (catalog #88837, ThermoFischer Scientific) were equilibrated in lysis buffer (50 μL beads per reaction in 500 μl of lysis buffer) for 10 minutes at room temperature on a rocking shaker, and then incubated with a total of 4 mg of tissue lysate per sample, overnight, at 4° C. Following four 5-minute washes with 1 ml lysis buffer, the dynabeads were magnetically recovered and precipitated proteins were eluted in 60 μl of 2× Laemmli sample buffer (catalog #1610747, Bio-Rad) with 300 mM Dithiothreitol (DTT). One-third of the eluted proteins (20 μl) was loaded per sample per gel for immunoblotting.\nThe alleles required to produce the Pkd1-KO+/−CTT mice were moved to this NNT-deficient background (J-Pkd1-KO and J-Pkd1-KO+CTT). […] No NNT was detected in glomeruli or Bowman's capsule. This pattern reproduced the one reported in the Human Protein Atlas (Uhlen, et al., Science Vol. 347, 1260419 (2015)). […] NNT was only detected in immunoprecipitates from “N” cystic mice that express CTT and not in those derived from N-Pkd1-KO mice that express NNT but not CTT."}
{"binder": "B1", "values": [{"measurement": "binding result", "result": "binds"}]}
